The test system of the assay is EGFR. Nature of the assay: EGF stimulation of EGFR wildtype cells, western blot of CDCA3 (FIG. 11). The note with it: EGFR wildtype cells stimulated with EGF. The assay is classed as cell-based. The source says: FIG. 11. CDCA3 levels are elevated in EGFR^mutNSCLC cell lines. Stimulation of receptor tyrosine kinase (RTK) signalling in EGFR wildtype cells induces the upregulation of CDCA3 protein.
The current Example examined whether elevated CDCA3 was as a result of activating mutations in epidermal growth factor receptor (EGFR) that solely occur in cases of NSCLC adenocarcinoma. In in vitro models of disease, CDCA3 protein levels were examined by western blot analysis and it was identified that CDCA3 protein is markedly elevated in EGFR mutant NSCLC cell lines versus EGFR wildtype cell lines (FIG. 11). The present inventors also identified that stimulation of EGFR wildtype cells with EGF, an EGFR ligand, induced PI3K-Akt downstream signal transduction and the upregulation of CDCA3 protein. PI3K-Akt was constitutively activated in EGFR mutant NSCLC cell lines.

B1: EGF: an EGFR ligand (protein, UniProt P01133 23-1207, looked up)
Pro-epidermal growth factor: PQHWSCPEGTLAGNGNSTCVGPAPFLIFSHGNSIFRIDTEGTNYEQLVVDAGVSVIMDFHYNEKRIYWVDLERQLLQRVFLNGSRQERVCNIEKNVSGMAINWINEEVIWSNQQEGIITVTDMKGNNSHILLSALKYPANVAVDPVERFIFWSSEVAGSLYRADLDGVGVKALLETSEKITAVSLDVLDKRLFWIQYNREGSNSLICSCDYDGGSVHISKHPTQHNLFAMSLFGDRIFYSTWKMKTIWIANKHTGKDMVRINLHSSFVPLGELKVVHPLAQPKAEDDTWEPEQKLCKLRKGNCSSTVCGQDLQSHLCMCAEGYALSRDRKYCEDVNECAFWNHGCTLGCKNTPGSYYCTCPVGFVLLPDGKRCHQLVSCPRNVSECSHDCVLTSEGPLCFCPEGSVLERDGKTCSGCSSPDNGGCSQLCVPLSPVSWECDCFPGYDLQLDEKSCAASGPQPFLLFANSQDIRHMHFDGTDYGTLLSQQMGMVYALDHDPVENKIYFAHTALKWIERANMDGSQRERLIEEGVDVPEGLAVDWIGRRFYWTDRGKSLIGRSDLNGKRSKIITKENISQPRGIAVHPMAKRLFWTDTGINPRIESSSLQGLGRLVIASSDLIWPSGITIDFLTDKLYWCDAKQSVIEMANLDGSKRRRLTQNDVGHPFAVAVFEDYVWFSDWAMPSVMRVNKRTGKDRVRLQGSMLKPSSLVVVHPLAKPGADPCLYQNGGCEHICKKRLGTAWCSCREGFMKASDGKTCLALDGHQLLAGGEVDLKNQVTPLDILSKTRVSEDNITESQHMLVAEIMVSDQDDCAPVGCSMYARCISEGEDATCQCLKGFAGDGKLCSDIDECEMGVPVCPPASSKCINTEGGYVCRCSEGYQGDGIHCLDIDECQLGEHSCGENASCTNTEGGYTCMCAGRLSEPGLICPDSTPPPHLREDDHHYSVRNSDSECPLSHDGYCLHDGVCMYIEALDKYACNCVVGYIGERCQYRDLKWWELRHAGHGQQQKVIVVAVCVVVLVMLLLLSLWGAHYYRTQKLLSKNPKNPYEESSRDVRSRRPADTEDGMSSCPQPWFVVIKEHQDLKNGGQPVAGEDGQAADGSMQPTSWRQEPQLCGMGTEQGCWIPVSSDKGSCPQVMERSFHMPSYGTQTLEGGVEKPHSLLSANPLWQQRALDPPHQMELTQ
modifications: Pro-epidermal growth factor
notes: an EGFR ligand
For the molecule B1, the CDCA3 protein result is reported as “upregulation”.

The values above are taken from US20230323466A1, “DETERMINING CANCER RESPONSIVENESS TO TREATMENT” (Queensland University of Technology, priority 2020, published 2023).
